The text below walks through data of PMC6820745, “Structural and thermodynamic basis for the recognition of the substrate-binding cleft on hen egg lysozyme by a single-domain antibody” (Scientific Reports, 2019).

Assay [1] concerns the target T1, hen egg lysozyme (hen, UniProt P00698 19-147).
T1 construct: hen egg lysozyme (HEL), bought, used without further purification; also called HEL; source: bought: Wako Pure Chemical (Cat. No. 126-02671)
Briefly: SPR; HEL immobilised on CM5 chip (200 RU), VHH flowed over, 14 °C, PBS with 0.005% Tween 20, steady-state responses (Scatchard plot), 1:1 binding model. Conditions: both partners purified. A general note: SPR reads the build-up and loss of mass on a sensor chip optically.

The target in assay [2] is T1, hen egg lysozyme. Briefly: ITC; iTC200, 25 °C, PBS; VHH (10 µM) in the cell titrated with HEL (100 µM); 1:1 binding model; two independent measurements. The settings on record: both partners purified. Background: Isothermal titration calorimetry measures the heat released or taken up as one component is titrated into another.
Assay [3] deals with T1, hen egg lysozyme. Briefly: SPR; HEL immobilised on CM5 chip (200 RU), VHH flowed over, 18 °C, PBS with 0.005% Tween 20, steady-state responses (Scatchard plot), 1:1 binding model. Conditions: both partners purified.
The target of assay [4] is T1, hen egg lysozyme. In words: SPR; HEL immobilised on CM5 chip (200 RU), VHH flowed over, multi-cycle, 10 °C, PBS with 0.005% Tween 20, global fit to a 1:1 binding model. The settings on record: both partners purified.
In assay [5] the target is T1, hen egg lysozyme. Briefly: SPR; HEL immobilised on CM5 chip (200 RU), VHH flowed over, 10 °C, PBS with 0.005% Tween 20, steady-state responses (Scatchard plot), 1:1 binding model. The settings on record: both partners purified.
The target of assay [6] is T1, hen egg lysozyme. Briefly: SPR; HEL immobilised on CM5 chip (200 RU), VHH flowed over, multi-cycle, 14 °C, PBS with 0.005% Tween 20, global fit to a 1:1 binding model. The settings on record: both partners purified.
In assay [7] the target is hen egg lysozyme (hen) (UniProt P00698). In words: ITC; iTC200; 25 °C; PBS; VHH (10 uM) in the cell titrated with HEL (100 uM); 1:1 binding model.
Assay [8] has the same target. Briefly: SPR; as a1, but KD from the responses in equilibrium (Scatchard plot, 1:1 model); HEL immobilised; 25 °C; PBS with 0.005% Tween 20.
Assay [9] concerns the target T1, hen egg lysozyme. Briefly: SPR; HEL immobilised on CM5 chip (200 RU), VHH flowed over, 30 °C, PBS with 0.005% Tween 20, steady-state responses (Scatchard plot), 1:1 binding model. The settings on record: both partners purified.
The target of assay [10] is T1, hen egg lysozyme. Briefly: SPR; HEL immobilised on CM5 chip (200 RU), VHH flowed over, multi-cycle, 26 °C, PBS with 0.005% Tween 20, global fit to a 1:1 binding model. Conditions: both partners purified.
Assay [11] concerns the target T1, hen egg lysozyme. In words: SPR; HEL immobilised on CM5 chip (200 RU), VHH flowed over, 26 °C, PBS with 0.005% Tween 20, steady-state responses (Scatchard plot), 1:1 binding model. Conditions: both partners purified.
For assay [12], the target named is hen egg lysozyme (hen) (UniProt P00698). In words: SPR; Biacore T200; HEL immobilised on CM5 chip (200 RU); VHH flowed over; 25 °C; PBS with 0.005% Tween 20; global fit to a 1:1 binding model.
Assay [13] addresses T1, hen egg lysozyme. Briefly: SPR; HEL immobilised on CM5 chip (200 RU), VHH flowed over, multi-cycle, 22 °C, PBS with 0.005% Tween 20, global fit to a 1:1 binding model. The settings on record: both partners purified.
For assay [14], the target named is T1, hen egg lysozyme. Briefly: SPR; HEL immobilised on CM5 chip (200 RU), VHH flowed over, multi-cycle, 18 °C, PBS with 0.005% Tween 20, global fit to a 1:1 binding model. The settings on record: both partners purified.
Assay [15] deals with T1, hen egg lysozyme. Briefly: SPR; HEL immobilised on CM5 chip (200 RU), VHH flowed over, 22 °C, PBS with 0.005% Tween 20, steady-state responses (Scatchard plot), 1:1 binding model. The settings on record: both partners purified.
The target in assay [16] is hen egg lysozyme (hen) (UniProt P00698). In words: SPR; HEL immobilised; measured at several temperatures; van't Hoff analysis (non-linear regression); PBS with 0.005% Tween 20; KD given for 25 °C from the van't Hoff free energy.
The target of assay [17] is T2, hen egg lysozyme (Gallus gallus (hen), UniProt P00698).
T2 construct: hen egg lysozyme (lysozyme C), bought from Wako Pure Chemical; also called HEL; source: bought: Wako Pure Chemical (Cat. No. 126-02671), used without further purification
Briefly: ITC; iTC200; 25 °C; PBS; VHH (10 uM) in the cell titrated with HEL (100 uM); 1:1 binding model. Conditions: both partners purified.

For assay [18], the target named is T2, hen egg lysozyme. Briefly: SPR; HEL immobilised; measured at several temperatures; van't Hoff analysis (non-linear regression); PBS with 0.005% Tween 20; KD given for 25 °C from the van't Hoff free energy. Conditions: both partners purified.
Assay [19] has as its target T2, hen egg lysozyme. The description is as above. The settings on record: both partners purified. This is another data set of the same source.
For assay [20], the target named is T2, hen egg lysozyme. Briefly: SPR; as a1, but KD from the responses in equilibrium (Scatchard plot, 1:1 model); HEL immobilised; 25 °C; PBS with 0.005% Tween 20. Conditions: both partners purified.
Assay [21] has as its target T2, hen egg lysozyme. In words: SPR; Biacore T200; HEL immobilised on CM5 chip (200 RU); VHH flowed over; 25 °C; PBS with 0.005% Tween 20; global fit to a 1:1 binding model. The settings on record: both partners purified. In short, it runs like this: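 Binding of the His6-tagged single-domain antibody, expressed in E. coli BL21(DE3) and purified by Ni-NTA and size-exclusion chromatography, was measured by surface plasmon resonance on a Biacore T200 against hen egg lysozyme immobilised on a CM5 chip (200 RU). Runs were at 25 °C in PBS with 0.005% Tween 20, with 300 s contact, 600 s dissociation and regeneration in 1.0 M Arg-HCl pH 4.4. Antibody concentrations were adjusted per mutant. Kd, kon and koff came from global fitting to a 1:1 binding model in BiaEvaluation.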

Where a chain is given by its changes, count along the chain named.

Chain of hen egg lysozyme (hen) (P00698 19-147): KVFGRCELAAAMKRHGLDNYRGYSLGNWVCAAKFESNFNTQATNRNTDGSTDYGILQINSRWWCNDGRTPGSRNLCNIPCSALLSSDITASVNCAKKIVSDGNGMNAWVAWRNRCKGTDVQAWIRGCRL
T1 sequence (P00698 19-147): as above
T2 sequence (P00698 19-147): as above

B1: D3-L11 Y102A (VHH)
VHH: DVQLVESGGGSVQAGGSLRLSCAASGSTDSIEYMTWFRQAPGKAREGVAALYTHTGNTYYTDSVKGRFTISQDKAKNMAYLRMDSVKSEDTAIYTCGATRKAVPVRFALDQSSYDYWGQGTQVTVSS
notes: the substitution is still to be applied; source: E. coli BL21(DE3), purified (Ni-NTA, SEC)
The Kd is the equilibrium constant for the complex coming apart. Broadly, the stoichiometry N is a count of units in the complex or per binding partner. In general, koff refers to the first-order rate constant of dissociation. A high value points to fast dissociation. Broadly, the kon is the rate constant with which the complex forms. For the molecule B1, the Kd in the assay with hen egg lysozyme [1] amounted to 348 ± 42 nM; with hen egg lysozyme [2] it was 1800 nM; with hen egg lysozyme [3], 429 ± 48 nM; in the assay with hen egg lysozyme [4], 100 nM; with hen egg lysozyme [5], 303 ± 32 nM; with hen egg lysozyme [6], 146 nM. In addition, the Kd with hen egg lysozyme (hen) [8] was determined as 635 nM; with hen egg lysozyme [9], 867 ± 70 nM; with hen egg lysozyme [10] it was 418 nM; with hen egg lysozyme [11], 658 ± 64 nM; with hen egg lysozyme (hen) [12], 295 nM; in the assay with hen egg lysozyme [13], 233 nM. The Kd was 191 nM in the assay with hen egg lysozyme [14], 529 ± 55 nM in the assay with hen egg lysozyme [15] and 413 nM with hen egg lysozyme (hen) [16]. Also, the “stoichiometry N” value with hen egg lysozyme [2] turned out to be 1.23. Further, the koff is 0.116 s⁻¹ with hen egg lysozyme [4]; 0.201 s⁻¹ in the assay with hen egg lysozyme [6]; 0.83 s⁻¹ in the assay with hen egg lysozyme [10]; 0.686 s⁻¹ with hen egg lysozyme (hen) [12]; 0.479 s⁻¹ with hen egg lysozyme [13]; 0.309 s⁻¹ with hen egg lysozyme [14]. For the same molecule, the on-rate constant (kon) with hen egg lysozyme [4] is 1.15e+06 M⁻¹ s⁻¹; with hen egg lysozyme [6] it was 1.38e+06 M⁻¹ s⁻¹; with hen egg lysozyme [10], 1.99e+06 M⁻¹ s⁻¹; with hen egg lysozyme (hen) [12], 2.32e+06 M⁻¹ s⁻¹; with hen egg lysozyme [13], 2.06e+06 M⁻¹ s⁻¹; in the assay with hen egg lysozyme [14], 1.62e+06 M⁻¹ s⁻¹. In addition, the ddH against WT antibody (ITC) in the assay with hen egg lysozyme (hen) [7] amounted to 4.8 kcal/mol. Moreover, the dH (van't Hoff) with hen egg lysozyme (hen) [16] was -12 kcal/mol.

B2: D3-L11 Y52A (VHH)
VHH: B1 VHH with Y52A, A102Y
notes: as the VHH chain of m2 with the stated change; source: E. coli BL21(DE3), purified (Ni-NTA, SEC)
As to B2, the “ddH against WT antibody (ITC)” value with hen egg lysozyme [17] turned out to be 9.1 ± 1.4 kcal/mol. For the same molecule, the “dH (van't Hoff)” value with hen egg lysozyme [18] was -11 kcal/mol. Also, the dissociation constant Kd with hen egg lysozyme [19] worked out at 46 ± 19 nM. In addition, the Kd in the assay with hen egg lysozyme [20] is 144 ± 22 nM. Besides, in the assay with hen egg lysozyme [21], the Kd was determined as 46.1 nM, the koff came out at 0.128 s⁻¹ and the kon was 2.77e+06 M⁻¹ s⁻¹.

B3: D3-L11 (VHH)
VHH: B1 VHH with A102Y
notes: VHH D3-L11 specific for HEL; Synthetic gene in pRA2 with a pelB signal peptide at the N-terminus and a His6-tag at the C-terminus; also called WT; WT antibody; source: E. coli BL21(DE3), purified (Ni-NTA, SEC)
With B3, the dH with hen egg lysozyme [17] was -21.4 ± 0.6 kcal/mol. Also, the “dH (van't Hoff)” value with hen egg lysozyme [18] is -17 kcal/mol. Also, in the assay with hen egg lysozyme [21], binding was put at a Kd of 0.129 nM, the dissociation rate constant (koff) was found to be 0.000785 s⁻¹ and the kon was found to be 6.1e+06 M⁻¹ s⁻¹.
